Measurements: US10677782B2, “Methods of determining interferon having direct inhibitory effects on tumors and uses thereof” (SUPERLAB FAR EAST LIMITED, priority 2013, dated 2020)

How the values were obtained:
Axin2 mRNA in A549 cells = experiment: qPCR of Wnt pathway target genes in A549 cells; type: cell-based, human; conditions: 10 μg/ml, 24 hr; Mock control set at 1
Method: (§1) After 24 hr of treatment, cellular total mRNA was isolated using TRIZOL Reagent and cDNA was synthesized and further subjected to qPCR, using specific primers of four (4) Wnt signaling downstream genes, Axin2, CD24, Survivin and ID2. Experiments were conducted in triplicate and normalized with the Mock group.
(§2) Total mRNA was isolated using TRIZOL Reagent (Invitrogen, Carlsbad, Calif.) according to the manufacturer's instructions. Complementary DNA (cDNA) was synthesized using a RT-PCR Kit (Cat #: FSQ-101, TOYOBO, Japan) according to the manufacturer's instructions and then subjected to qPCR with a SYBR Green PCR kit (Cat #: QPK-201, TOYOBO, Japan). The primers of the four Wnt pathway target genes were as follows: Axin2 sense primer: 5′-[…]-3′ (SEQ ID NO:8) and antisense primer: 5′-[…]-3′ (SEQ ID NO: 9); CD24 sense primer: 5′-[…]-3′ (SEQ ID NO: 10) andantisense primer: 5′-[…]-3′ (SEQ ID NO: 11); Survivin sense primer: 5′-[…]-3′ (SEQ ID NO: 12) and antisense primer: 5′-[…]-3′ (SEQ ID NO: 13) and ID2 sense primer: 5′-[…]-3′ (SEQ ID NO: 14) and antisense primer: 5′-[…]-3′ (SEQ ID NO: 15).
(§3) The amplification protocol consisted of incubations at 95° C. for 1 minute, 40 cycles (95° C. for 15 seconds, 60° C. for 15 seconds, 72° C. for 30 seconds). Incorporation of the SYBR Green dye into PCR products was monitored in real time with a Bio-Rad Detection System and subsequently analyzed using Bio-Rad CFX manager 2.1 software. The samples were pooled for each condition and run in duplicate. Treated samples were compared to Mock using the 2^−ΔΔCt method and plotted as fold change. GAPDH was used as the normalization control.

[1] = test system: Survivin mRNA in A549 cells; experiment: qPCR of Wnt pathway target genes in A549 cells; type: cell-based, human; conditions: 10 μg/ml, 24 hr; Mock control set at 1
Method: as §1, §2, §3

ID2 mRNA in A549 cells = experiment: qPCR of Wnt pathway target genes in A549 cells; type: cell-based, human; conditions: 10 μg/ml, 24 hr; Mock control set at 1
Method: as §1, §2, §3

[2] = test system: beta-catenin protein level in SW480 cells; experiment: Beta-catenin protein level by Western Blot; type: cell-based, human; conditions: 10 mcg/ml, 72 hours
Method: (§4) Cancer cells, A549 and Sw480, were cultured to about 85% confluency and put into 6 well plates. The cells were treated with either 10 mcg/ml IFNα-2b or rSIFN-co or left untreated as control (Mock) for 24 hr, 48 hr, or 72 hr, respectively. After treatment, the cells were harvested for Western Blot to detect the beta-catenin protein level, using its specific antibody, with GAPDH as endogenous loading control. The experiment was conducted in triplicate.
(§5) To determine the expression of various proteins, cells were harvested from the plates and total cellular protein were extracted using extraction reagents (Cat #: P0013) according to the manufacturer's protocol (Beyotime, China). The total protein concentration was determined by the Lowry Protein Assay kit (Bio-Rad, USA). […] The membranes were blocked with 5% skimmed milk, bovine serum albumin, 10 mmol/L Tris-HCl at pH 8.0, 150 mmol/L NaCl, and 0.05% Tween 20 overnight at 4° C. The blocked membranes were then incubated with primary antibodies (1:1000 dilutions), followed by secondary HRP-conjugated antibodies. Blots were visualized using Luminescence/Fluorescence Imaging LAS4000 System (GE Healthcare Life Sciences, USA) with super signal west pico chemiluminescent substrate kit (Thermo scientific, USA).
(§6) For this determination, the primary antibodies used were mouse monoclonal anti-beta-catenin antibodies (1:1000; Santa Cruz Technology, Santa Cruz, Calif.) and mouse monoclonal anti-GAPDH antibodies (1:2000) (Kangwei Biotechnology, China). Anti-mouse HRP-conjugated secondary antibodies (Santa Cruz Technology, Santa Cruz, Calif.) were used at concentrations of 1:2000.

[3] = test system: beta-catenin protein level in A549 cells; experiment: Beta-catenin protein level by Western Blot; type: cell-based, human; conditions: 10 mcg/ml
Method: as §4, §5, §6

LRP6 mRNA in H460 cells = experiment: qPCR of Wnt-related receptor LRP6; type: cell-based, human; conditions: 10 μg/ml, 24 hr; vs Mock
Description: as §2
as §3, with “Treated samples were compared to Mock using the 2^−ΔΔCt method and plotted as fold change. GAPDH was used as the normalization control.” left out
The regulation of LRP6/FZD6 by rSIFN-co was investigated. […] Results were recorded as relative mRNA level of either LRP6 or FZD6 relative to GAPDH.

[4] = Tolerability and body weight of tumor-bearing mice, Example 4; type: in vivo, BALB/cA nu/nu mice; conditions: 0.05 mg/mouse i.t. every other day; day 17; reasons unknown
Method: Animals were assigned to treatment groups randomly. Initially, all animals were placed in one large animal cage. For assignment to the study, they were later separately housed, with 6 animals per cage per treatment group. Groups 1 and 2 are Control groups in which the animals were each administered the vehicle every other day after the first treatment. […] The animals in Groups 4, 5 and 6 were each given rSIFN-co every other day after the first treatment at 0.15 mg/mouse (Group 4) or 0.10 mg/mouse (Group 5) or 0.05 mg/mouse (Group 6), respectively. Tumor growth was monitored by measuring the length and width of each tumor twice a week during the course of the study. Each animal was also weighed twice a week during the course of the study.
The study was conducted as in Example 3, except as specifically indicated otherwise. Human xenografts for injection into the test animals were first established and prepared in a similar manner as in Example 1, but by inoculating 2.5×10^6 SPC-A4 cells subcutaneously (s.c.) in nude mice and passaging the well-grown tumors twice in nude mice. The 1.5 mm^3 fragments were then used for s.c. implantation into the test animals. The body weight of the animals averaged 22±2 g at dose initiation. In contrast to Example 3, the animals used in this study were all male and the study was conducted over a 21 day treatment period.

B1: rSIFN-co: Recombinant super-compound interferon; amino acid sequence SEQ ID NO: 1 (same as interferon alfacon-1), encoded by SEQ ID NO: 2, novel tertiary structure (protein)
chain: MCDLPQTHSLGNRRALILLAQMRRISPFSCLKDRHDFGFPQEEFDGNQFQKAQAISVLHEMIQQTFNLFSTKDSSAAWDESLLEKFYTELYQQLNDLEACVIQEVGVEETPLMNVDSILAVKKYFQRITLYLTEKKYSPCAWEVVRAEIMRSFSLSTNLQERLRRKE
modifications: Amino acid sequence of recombinant interferon
relative expression level of Axin2 mRNA (Axin2 mRNA in A549 cells): about 0.4
relative expression level of Survivin mRNA [1]: about 0.4
relative expression level of ID2 mRNA (ID2 mRNA in A549 cells): about 0.4
beta-catenin protein level [2]: Decrease in beta-catenin protein level in the SW480 cells was obvious
beta-catenin protein level ([3]; 48 hr): dramatically decreased
beta-catenin protein level ([3]; 72 hr): Further decrease
relative expression of the LRP6 mRNA (LRP6 mRNA in H460 cells): down-regulated to various extents
deaths [4]: one mouse
